The record followed here is patent publication EP4624487A1.

The target in the first assay is antiserum B1. Description: competition ELISA: peptide added to B1 on plate-bound hTNFα.
Regarding NGVELRDNQLVVPSE [hTNFα peptide T(39-53)], the OD450 with peptide worked out at 1.01 and the inhibition rate (%) turned out to be 23%.
On the same counts, the results for PIYLGGVFQLEKGDR [hTNFα peptide H(117-131)] are 1.2 and 0%.
VVANPQAEGQLQWLN [hTNFα peptide T(16-30)]: the OD450 with peptide worked out at 1.06 and the inhibition rate (%) came out at 9%.
As for LTHTISRIAVSYQTK [hTNFα peptide T(76-90)], the OD450 with peptide amounted to 1.12 and the inhibition rate (%) was 13%.
Consider PCQRETPEGAEAKPW [hTNFα peptide T(100-114)], for which the OD450 with peptide was found to be 1.06 and the inhibition rate (%) came to 14%.
For the molecule SDKPVAHVVANPQAE [hTNFα peptide T(9-23)], the OD450 with peptide was found to be 1.06 and the inhibition rate (%) is 4%.
On the same counts, the results for NQLVVPSEGLYLIYS [hTNFα peptide T(46-60)] are 1.16 and 10%.
RRANALLANGVELRD [hTNFα peptide T(31-45)]: the OD450 with peptide is 0.106 and the inhibition rate (%) is 91%.
Regarding DRLSAEINRPDYLDF [hTNFα peptide T(130-144)], the OD450 with peptide stood at 1.11 and the inhibition rate (%) came to 9%.
Turning to GQLQWLNRRANALLA [hTNFα peptide T(24-38)], the OD450 with peptide amounted to 0.103 and the inhibition rate (%) was found to be 92%.
VRSSSRTPSDKPVAH [hTNFα peptide T(1-15)]: the OD450 with peptide was found to be 1.1 and the inhibition rate (%) turned out to be 13%.
On the same counts, the results for VNLLSAIKSPCQRET [hTNFα peptide T(91-105)] are 1.17 and 3%.

For a further assay, the target named is antiserum C2. Briefly: competition ELISA: peptide added to C2 on plate-bound hTNFα.
For the molecule DKPVAHVVANPQAEG [hTNFα peptide H(10-24)], the OD450 with peptide worked out at 1.74 and the inhibition rate (%) was found to be 8%.
On the same counts, the results for LQWLNRRANALLANG [hTNFα peptide H(26-40)] are 0.313 and 82%.
Turning to ANGVELRDNQLVVPS [hTNFα peptide H(38-52)], the OD450 with peptide was determined as 1.42 and the inhibition rate (%) came to 19%.
As for LSAIKSPCQRETPEG [hTNFα peptide H(94-108)], the OD450 with peptide came out at 1.79 and the inhibition rate (%) came to 6%.
Turning to GDRLSAEINRPDYLD [hTNFα peptide H(129-143)], the OD450 with peptide stood at 1.78 and the inhibition rate (%) turned out to be 12%.
Consider AHVVANPQAEGQLQW [hTNFα peptide H(14-28)], for which the OD450 with peptide turned out to be 1.65 and the inhibition rate (%) is 7%.
With HVLLTHTISRIAVSY [hTNFα peptide H(73-87)], the OD450 with peptide was 1.79 and the inhibition rate (%) was -1%.
For the molecule SEGLYLIYSQVLFKG [hTNFα peptide H(52-66)], the OD450 with peptide came to 1.35 and the inhibition rate (%) turned out to be 21%.
As to QTKVNLLSAIKSPCQ [hTNFα peptide H(88-102)], the OD450 with peptide came out at 1.78 and the inhibition rate (%) was found to be 5%.
On the same counts, the results for ISRIAVSYQTKVNLL [hTNFα peptide H(80-94)] are 1.7 and 12%.
As for QVLFKGQGCPSTHVL [hTNFα peptide H(61-75)], the OD450 with peptide is 1.73 and the inhibition rate (%) was 10%.
With LGGVFQLEKGDRLSA [hTNFα peptide H(120-134)], the OD450 with peptide came to 1.77 and the inhibition rate (%) was determined as 10%.
